In paper PMC3796484:

Target: spliced X-box binding protein (Xbp1s), P17861-2
Assay: two-hybrid assay (Gal4 UAS-CAT reporter in transfected cells)
Conditions: CAT activity normalized to β-galactosidase internal control; P=.008; parent: est. 3.4; read off a plot

Sequence of spliced X-box binding protein (Xbp1s), P17861-2 (P17861 other isoform, or with tags, fused parts or gaps): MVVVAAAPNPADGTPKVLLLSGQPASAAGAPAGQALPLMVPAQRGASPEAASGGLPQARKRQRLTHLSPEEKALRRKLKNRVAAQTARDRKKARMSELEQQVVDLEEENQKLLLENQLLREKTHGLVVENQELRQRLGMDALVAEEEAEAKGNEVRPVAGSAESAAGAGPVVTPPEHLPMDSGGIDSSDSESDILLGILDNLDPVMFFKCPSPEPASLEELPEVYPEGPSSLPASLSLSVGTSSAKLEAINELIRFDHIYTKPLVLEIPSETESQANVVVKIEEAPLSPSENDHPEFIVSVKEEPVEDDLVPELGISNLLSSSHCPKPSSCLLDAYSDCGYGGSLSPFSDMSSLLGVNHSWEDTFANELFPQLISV

other: Ratio (with:without activator): 1
Substance: Zhangfei linked to the DNA-binding domain of yeast GAL4 (from UniProt Q9NS37) ZF(L/A)
